Experimental data from the DeepSol protein solubility set.

assay: soluble on expression in E. coli; label from the status in PepcDB or PDB records

Row | Sequence | soluble on expression in E. coli
1 | MQFFDGYHYHGTTFEQSYRCYPASFIDKPQLESGDKIIMPPSALDRLASLHIDYPMLFELRNAGIERVTHCGVLEFIAEEGMIYMPYWMMQNLLLQEGDIVRVRNVTLPKGTYVKLQPHTTDFLDISNPKAILETALRNYSCLTSGDSIMVPYNNKKYFIDIVETKPANAISIIETDCEVDFAPPLDYKEPERPTAPSAAKGPAKAEEVVDEPEPKFNPFTGSGRRLDGRPLAYEPAPASSSKGKQPVVANGNGQSSVASSSEKATRAQGKLVFGANGNRAPKEAAPKVGAAKETKKEEQEKKDEPKFQAFSGKKYSLRG | soluble
2 | MQFLSIGVNDDADSLKEYLINELARNNKKNINYLVRDVADSEGSTSIICSLADNDAPSDMNSHLYKELVLNVSNALATFIIDKYEEKLIYRIINSNYCYFTQAERKEIQRLTLAIIKNEERNLLNSFFQIRRKNIIIKRLLEYFESSNTVILDGFVNFRLKDYMKDLEEIVEKAVDDFLMEREYREFIRLLRYFVDIQEPKFNAVHIIAGYDNKYVLLDENKNEITNECLQEFVNDIPEGEINYDDLLVSSLITMAPRKLVIHGAKSFRNKELLETIKNVFWGKVVICSECELCMVNMVRSENKSQI | not soluble
3 | MQFSYVNPTMIHFGQGQIASIRRDIPKDHKVLVLYGGGSIKRNGVYDQVVEALSEHQWVEFSGVEPNPTKETLDKAVHIVKNQHIDFILAVGGGSVIDGSKYVAAAAFYEGDGWDILTGQHTVKQATPIGAILTLPATGSESNTGAVITKAETQDKLAFLSPAVQPRFAVLDPDVMKSLPERQLVNGLVDAWVHVCEQYLTLPTQAMVQEGYAEVLLRNLLALGADFVNRDNDAWRANLMWTANQALNGLIGTGVPQDWATHMIGHELTALWHVDHARSLAIVQPWLLRNQLKHKKAKLEQMGKNVFGLPQSDDLAEKTIAAIEAFYHQLNVATQFGEHGMAKEAAVDAVLQQLTAHGMHKLGEQGTIDLQESRKILENALY | not soluble
4 | MQGDPDVLRLLNEQLTSELTAINQYFLHSKMQDNWGFTELAAHTRAESFDEMRHAEEITDRILLLDGLPNYQRIGSLRIGQTLREQFEADLAIEYDVLNRLKPGIVMCREKQDTTSAVLLEKIVADEEEHIDYLETQLELMDKLGEELYSAQCVSRPPT | not soluble
5 | MQGQGDLFESTDWQEVRQGKLFYQPNFLSQQEADTYFSTLMSTLPWQQERITIFGKSVLQPRLQTWHGDAPYTYSGLTMAPHPWTSELSSLKARCESLANTPFNSVLANLYRDGQDSMGWHQDNEPELGRNPVIASLNLGDTRRFVLRNLHCKTQIEYELGHGALLIMAGELQHHWRHCVPKTAKPKGERINLTFRHILNYLEHHHHHH | soluble
6 | MQINGKAPRNKDLEPHSFELWLNAAKTNLDKYEMALIITATLGLRRGEVMGLRNESIKISHDQINDADVAQISIDMQRNTNELNGGPLKTKSSYRTIWAFGKTVDHLKYAMITADNLRQRNNIQAEKHWLWLNNDGNPLHPTHLNRLMRRVSNRSGVEVYPHLLRHYFATQAIAANKPQIDVMHYLGHKNLQMTADYTRSTKAASLNVFNSIDKFLLEHHHHHH | soluble
7 | MQITQGQRIPLSTLIQGNDLTLSIVIKSAHVIDYVCFGVDANGKLSDDRYMIFFNQPTSPCNSVKQANGGDFQLALDSLPASIDRLVFTASIDGAGVMSDIQASHFSIQHQGREVARGEFSGATFAAEKAIMVADIYRKNGEWRIASNLQGYNAGLDALVGHFGGVADAPPAAPAAPARISLEKKIADAAPQLISLAKKAQVSLEKAKLTDTKARVGLVLDASGSMNPQYTRGHVQEVVDRLIPLAVHFDDDGALDCWAFGAKPQQLNAITLKNFQNFIKTDHGGWKDWELGSRINDEPKAMRMVIDYYKKSGDKTPVYILFISDGGVHQDREITKLMIEAAKLPIFWQFVGLGGRGYGILEKLDDMGGRVVDNCNFFALDRLDEVPEEKLYDLLMEEFPDWLNAAKGAGIL | not soluble
8 | MQIWHMEPFPCGDRRLPHHVFPPKKITTTQLGQLAGVQYYKVDLDDTASMKKRLSAVKTEKNVTFTDMFTVSETMLEFDDKMEQFYEPQVQKEDVISLVVEGTCYYDVEPEDDSWIRVQVEKGDLIVIPKGLSHRFTTTPQNFVKIQRFFSRKVEGNQG | not soluble
9 | MQKPKLGKIKLLSAKEQVAAVLRKAILSRELVEGQEITLEGIAGMVGVSSMPVREAFQILAADGLIKVRPNKGAVVLGINEQTIREHYEIRALLESEAVAKASRPGSDISRIAQVHYAAEKALAENNSAEYSDLNQAFHMEIWNVAGNEKMKMLLCNMWNGLSMGHKVTEEEYAVISIQEHKSILQALELHDETLARQRMREHIIRSMENMLTRYVGDPSA | not soluble
10 | MQKQKSFDKQTTKGKLYLVPTPIGNLEDMSIRCLNILKEATVIASEDTRNTQKLLNHFEITTPQISLHEHNYKERIPQLITRLLNGETIAQVSDAGMPSISDPGHELVTACLEEELAVIALPGPTAGMTALIASGLLPQPFTFYGFLPRKKKEQKDVLSALKEERPTQIFYESPYRIAKTVATFAEVYGQERPAVICRELTKLHEEYLRGTLGELTEYLAENTLKGECCLLVSGFTGEKETIAAMPAISLKEHVQVLMEEEGRSSKEAIKEVAKLRNVKKQEVYKEYHSI | not soluble
11 | MQKSIDDMINEVLAVKVEKLPKTQDFSDLQEVCASKLQIINKEMDEADRKLEETLEKRKLVEKQLEDLQEQYKVKEFAFSLQKEFQDELKKVAEEIF | not soluble
12 | MQKTIYDVSFINGEVKTFTPLMLDNVMAEKELVARGGNIRENSIEFMAILTHKVCRRTYRENTPLDLDIFLESVLDIDTRVEEVTTFPEQNLDAHGPEPRHRT | not soluble
13 | MQLALVLSELGEYQVSNQWLLKIIHDLDETMYDCLYFLANNYACLGLFREATQYAEQYLTCESDGEFADDAADLLELLKLDRHDVSEEQEQLITMQERARHLLEQERFAEAIEALEAIVSRYPEFWSAHNNLALAYFYNGDVERAKQKLLEVLKRDPGNLHALCNALVFAYYLHDQEEVAALCETLASVYPFFREHQYKLGATFALVGRFDSAFRWLYRLYKNGFDGDGPFYYWLAYSAYHIGHESLARQVWETLTTLHPEKRGELEHHHHHH | not soluble
